Results on 57 variants are retold here after PMC13397619.

B1: NLV2 TCR alpha chain (CDR3α only) (parent)
chain: AGPMKTSYDKVI

Variants of B1 are the subject of the assay. The assay can be described thus: T-Switch: Jurkat TCRβ−/− cells expressing a CDR3 saturation-mutagenesis library, stained with two peptide-HLA-A*02:01 tetramers (original and novel peptide) plus anti-CD3, FACS-sorted into four gates, gDNA sequenced. Particulars: tetramers 1 µg/mL, 30 min on ice, SP, DP and SW gates expanded about 10 days between rounds ('two to three rounds of selection' in the Methods), unresolved parent, parent is a CDR3 fragment, scale: fold enrichment, numbering: sequential-on-construct, sequence starts at 1.

Where [1] appears, read: with both tetramers (double-negative gate, binds neither): HLA-A*02:01 with … and with …, gate DN: OPPOSITE: higher = more of the variant in the gate that binds neither peptide = LESS binding (or no expression; inferred). Fold enrichment of the CDR3 variant in one FACS gate of a two-tetram.
The mark [2] stands for this setting: with both tetramers (double-positive gate): HLA-A*02:01 with … and with …, gate DP: higher = more of the variant in the gate that binds both peptides. Fold enrichment of the CDR3 variant in one FACS gate of a two-tetramer stain. SP/DP/SW gates were expanded and re-sorted bef.

As for […] (CDR3 as printed); K5C derived by comparing it with the table's wild-type CDR3 AGPMKTSYDKVI, the enrichment under setting [1] stood at 1.03 and the enrichment under setting [2] stood at 0.
Taken in the same sequence, the figures for […] (CDR3 as printed); Y8W derived by comparing it with the table's wild-type CDR3 AGPMKTSYDKVI were 1.01 and 0.
Taken in the same sequence, the figures for […] (CDR3 as printed); K5V derived by comparing it with the table's wild-type CDR3 AGPMKTSYDKVI were 0.87 and 0.
Taken in the same sequence, the figures for […] (CDR3 as printed); K10T derived by comparing it with the table's wild-type CDR3 AGPMKTSYDKVI were 1.24 and 0.
[…] (CDR3 as printed); T6M derived by comparing it with the table's wild-type CDR3 AGPMKTSYDKVI: the enrichment is, setting by setting: under setting [1], 1.45; under setting [2], 0.
Taken in the same sequence, the figures for […] (CDR3 as printed); I12S derived by comparing it with the table's wild-type CDR3 AGPMKTSYDKVI were 0.885 and 0.
Taken in the same sequence, the figures for […] (CDR3 as printed); K5T derived by comparing it with the table's wild-type CDR3 AGPMKTSYDKVI were 0.493 and 0.931.
Taken in the same sequence, the figures for […] (CDR3 as printed); Y8Q derived by comparing it with the table's wild-type CDR3 AGPMKTSYDKVI were 0.629 and 0.
In the case of […] (CDR3 as printed); P3N derived by comparing it with the table's wild-type CDR3 AGPMKTSYDKVI, the enrichment under setting [1] is 1.07 and the enrichment under setting [2] came out at 0.
Taken in the same sequence, the figures for […] (CDR3 as printed); K5Y derived by comparing it with the table's wild-type CDR3 AGPMKTSYDKVI were 0.737 and 0.
As to […] (CDR3 as printed); T6S derived by comparing it with the table's wild-type CDR3 AGPMKTSYDKVI, the enrichment was determined as 1.05 under setting [1] and 0 under setting [2].
Taken in the same sequence, the figures for […] (CDR3 as printed); G2V derived by comparing it with the table's wild-type CDR3 AGPMKTSYDKVI were 0.88 and 0.
Taken in the same sequence, the figures for […] (CDR3 as printed); K5G derived by comparing it with the table's wild-type CDR3 AGPMKTSYDKVI were 0.602 and 0.
Taken in the same sequence, the figures for […] (CDR3 as printed); T6A derived by comparing it with the table's wild-type CDR3 AGPMKTSYDKVI were 0.82 and 0.
On to […] (CDR3 as printed); P3V derived by comparing it with the table's wild-type CDR3 AGPMKTSYDKVI, for which the enrichment reads like this: under setting [1], 1.02; under setting [2], 0.
Taken in the same sequence, the figures for […] (CDR3 as printed); I12H derived by comparing it with the table's wild-type CDR3 AGPMKTSYDKVI were 1.04 and 0.
Taken in the same sequence, the figures for […] (CDR3 as printed); D9M derived by comparing it with the table's wild-type CDR3 AGPMKTSYDKVI were 0.931 and 0.
Taken in the same sequence, the figures for […] (CDR3 as printed); K5A derived by comparing it with the table's wild-type CDR3 AGPMKTSYDKVI were 0.428 and 0.
Turning to […] (CDR3 as printed); M4F derived by comparing it with the table's wild-type CDR3 AGPMKTSYDKVI, the enrichment came to 1.34 under setting [1] and 0 under setting [2].
Taken in the same sequence, the figures for […] (CDR3 as printed); A1G derived by comparing it with the table's wild-type CDR3 AGPMKTSYDKVI were 0.876 and 0.
Taken in the same sequence, the figures for […] (CDR3 as printed); M4L derived by comparing it with the table's wild-type CDR3 AGPMKTSYDKVI were 0.995 and 0.
Taken in the same sequence, the figures for […] (CDR3 as printed); T6F derived by comparing it with the table's wild-type CDR3 AGPMKTSYDKVI were 1.26 and 0.
For the variant […] (CDR3 as printed); M4A derived by comparing it with the table's wild-type CDR3 AGPMKTSYDKVI, the enrichment worked out at 0.697 under setting [1] and 0 under setting [2].
Taken in the same sequence, the figures for […] (CDR3 as printed); Y8V derived by comparing it with the table's wild-type CDR3 AGPMKTSYDKVI were 1.48 and 0.
In the case of […] (CDR3 as printed); G2I derived by comparing it with the table's wild-type CDR3 AGPMKTSYDKVI, the enrichment is 1.1 under setting [1] and 0 under setting [2].
Taken in the same sequence, the figures for […] (CDR3 as printed); K5P derived by comparing it with the table's wild-type CDR3 AGPMKTSYDKVI were 0.356 and 0.
[…] (CDR3 as printed); T6W derived by comparing it with the table's wild-type CDR3 AGPMKTSYDKVI: the enrichment reads like this: under setting [1], 1.07; under setting [2], 0.
[…] (CDR3 as printed); T6N derived by comparing it with the table's wild-type CDR3 AGPMKTSYDKVI: the enrichment is, setting by setting: under setting [1], 0.879; under setting [2], 0.
Taken in the same sequence, the figures for […] (CDR3 as printed); K10W derived by comparing it with the table's wild-type CDR3 AGPMKTSYDKVI were 1.38 and 0.
Taken in the same sequence, the figures for […] (CDR3 as printed); Y8K derived by comparing it with the table's wild-type CDR3 AGPMKTSYDKVI were 0.928 and 0.
Taken in the same sequence, the figures for […] (CDR3 as printed); I12K derived by comparing it with the table's wild-type CDR3 AGPMKTSYDKVI were 0.703 and 0.
On to […] (CDR3 as printed); V11F derived by comparing it with the table's wild-type CDR3 AGPMKTSYDKVI, for which the enrichment was 1.29 under setting [1] and 0 under setting [2].
Taken in the same sequence, the figures for […] (CDR3 as printed); D9N derived by comparing it with the table's wild-type CDR3 AGPMKTSYDKVI were 1.01 and 0.
Taken in the same sequence, the figures for […] (CDR3 as printed); K5H derived by comparing it with the table's wild-type CDR3 AGPMKTSYDKVI were 0.696 and 0.
With […] (CDR3 as printed); T6H derived by comparing it with the table's wild-type CDR3 AGPMKTSYDKVI, the enrichment under setting [1] is 1.22 and the enrichment under setting [2] is 0.
Taken in the same sequence, the figures for […] (CDR3 as printed); P3T derived by comparing it with the table's wild-type CDR3 AGPMKTSYDKVI were 0.962 and 0.
Taken in the same sequence, the figures for […] (CDR3 as printed); K5Q derived by comparing it with the table's wild-type CDR3 AGPMKTSYDKVI were 0.51 and 0.
Taken in the same sequence, the figures for […] (CDR3 as printed); Y8M derived by comparing it with the table's wild-type CDR3 AGPMKTSYDKVI were 1.1 and 0.
Consider […] (CDR3 as printed); V11Y derived by comparing it with the table's wild-type CDR3 AGPMKTSYDKVI, for which the enrichment by setting is: under setting [1], 1.04; under setting [2], 0.
Taken in the same sequence, the figures for […] (CDR3 as printed); T6Q derived by comparing it with the table's wild-type CDR3 AGPMKTSYDKVI were 1.14 and 0.
Taken in the same sequence, the figures for […] (CDR3 as printed); V11M derived by comparing it with the table's wild-type CDR3 AGPMKTSYDKVI were 1.2 and 0.
Taken in the same sequence, the figures for […] (CDR3 as printed); P3E derived by comparing it with the table's wild-type CDR3 AGPMKTSYDKVI were 1.15 and 0.
On to […] (CDR3 as printed); A1C derived by comparing it with the table's wild-type CDR3 AGPMKTSYDKVI, for which the enrichment runs as follows: under setting [1], 0.8; under setting [2], 0.
For the variant […] (CDR3 as printed); T6Y derived by comparing it with the table's wild-type CDR3 AGPMKTSYDKVI, the enrichment was determined as 1.48 under setting [1] and 0 under setting [2].
Taken in the same sequence, the figures for […] (CDR3 as printed); K10V derived by comparing it with the table's wild-type CDR3 AGPMKTSYDKVI were 1.38 and 0.
As for […] (CDR3 as printed); T6G derived by comparing it with the table's wild-type CDR3 AGPMKTSYDKVI, the enrichment under setting [1] was 1.02 and the enrichment under setting [2] amounted to 0.
Taken in the same sequence, the figures for […] (CDR3 as printed); P3H derived by comparing it with the table's wild-type CDR3 AGPMKTSYDKVI were 0.96 and 0.
Taken in the same sequence, the figures for […] (CDR3 as printed); K5L derived by comparing it with the table's wild-type CDR3 AGPMKTSYDKVI were 0.992 and 0.
Taken in the same sequence, the figures for […] (CDR3 as printed); K5E derived by comparing it with the table's wild-type CDR3 AGPMKTSYDKVI were 0.392 and 0.
Consider […] (CDR3 as printed); S7G derived by comparing it with the table's wild-type CDR3 AGPMKTSYDKVI, for which the enrichment reads like this: under setting [1], 0.911; under setting [2], 0.
Taken in the same sequence, the figures for […] (CDR3 as printed); D9V derived by comparing it with the table's wild-type CDR3 AGPMKTSYDKVI were 0.959 and 0.
Taken in the same sequence, the figures for […] (CDR3 as printed); P3Y derived by comparing it with the table's wild-type CDR3 AGPMKTSYDKVI were 1.08 and 0.
Taken in the same sequence, the figures for […] (CDR3 as printed); P3W derived by comparing it with the table's wild-type CDR3 AGPMKTSYDKVI were 0.887 and 0.
In the case of […] (CDR3 as printed); P3D derived by comparing it with the table's wild-type CDR3 AGPMKTSYDKVI, the enrichment reads like this: under setting [1], 1.14; under setting [2], 0.
Taken in the same sequence, the figures for […] (CDR3 as printed); I12A derived by comparing it with the table's wild-type CDR3 AGPMKTSYDKVI were 0.854 and 0.
Taken in the same sequence, the figures for […] (CDR3 as printed); D9R derived by comparing it with the table's wild-type CDR3 AGPMKTSYDKVI were 1.08 and 0.
In the case of […] (CDR3 as printed); Y8I derived by comparing it with the table's wild-type CDR3 AGPMKTSYDKVI, the enrichment under setting [1] came out at 1.11 and the enrichment under setting [2] came to 0.
